Target: Prunus persica WEEP protein (PpeWEEP), 6xHis-MBP-PpeWEEP-StrepTagII fusion protein (Prunus persica (peach))
Test: SEC

Prunus persica WEEP protein (PpeWEEP), 6xHis-MBP-PpeWEEP-StrepTagII fusion protein (natural protein)
stoichiometry N: 8.7 mer

From publication PMC10245973
